{"source": "paper PMC12102759", "about": "(2025)", "parents": {"B1": {"name": "PEX5 peptide 110-125 (Peroxisomal targeting signal 1 receptor), 16-mer library wild type / PEX14 Pex14 (PEX14 PEX14, residues 16-84) (parent complex)", "chain 1": "ADLALSENWAQEFLAA", "chain 2": "TPGSENVLPREPLIATAVKFLQNSRVRQSPLATRRAFLKKKGLTDEEIDMAFQQSGTAADEPSSLGPAT"}}}
{"variants_of": "B1", "assay": "proteomic peptide phage display deep mutational scan (ProP-PD DMS): M13 P8 16-mer library selected against immobilised GST-tagged bait for four days (rounds), NGS of the eluted pools per day and pseudo-replica; bait immobilised on MaxiSorp plates (10 µg), library pre-cleared on GST, 2 h binding at 4 °C, five washes; one round per day, days 1-4; value from days 2 and 3"}
{"variant": "chain 1 A1E", "screen value": "0.00113 average fractional NGS count over selection days 2 and 3 (reads of this peptide / all reads for the bait, averaged over …"}
{"variant": "chain 1 D2W", "screen value": "0.000382 average fractional NGS count over selection days 2 and 3 (reads of this peptide / all reads for the bait, averaged over …"}
{"variant": "chain 1 L3W", "screen value": "0.000685 average fractional NGS count over selection days 2 and 3 (reads of this peptide / all reads for the bait, averaged over …"}
{"variant": "chain 1 D2K", "screen value": "0.000496 average fractional NGS count over selection days 2 and 3 (reads of this peptide / all reads for the bait, averaged over …"}
{"variant": "chain 1 A10E", "screen value": "0.000658 average fractional NGS count over selection days 2 and 3 (reads of this peptide / all reads for the bait, averaged over …"}
{"variant": "chain 1 L3I", "screen value": "0.000729 average fractional NGS count over selection days 2 and 3 (reads of this peptide / all reads for the bait, averaged over …"}
{"variant": "chain 1 A1T", "screen value": "0.00109 average fractional NGS count over selection days 2 and 3 (reads of this peptide / all reads for the bait, averaged over …"}
{"variant": "chain 1 E12S", "screen value": "0.00196 average fractional NGS count over selection days 2 and 3 (reads of this peptide / all reads for the bait, averaged over …"}
{"variant": "chain 1 E7A", "screen value": "0.00398 average fractional NGS count over selection days 2 and 3 (reads of this peptide / all reads for the bait, averaged over …"}
{"variant": "chain 1 A4H", "screen value": "0.00244 average fractional NGS count over selection days 2 and 3 (reads of this peptide / all reads for the bait, averaged over …"}
{"variant": "chain 1 N8H", "screen value": "0.00161 average fractional NGS count over selection days 2 and 3 (reads of this peptide / all reads for the bait, averaged over …"}
{"variant": "chain 1 E7R", "screen value": "0.00247 average fractional NGS count over selection days 2 and 3 (reads of this peptide / all reads for the bait, averaged over …"}
{"variant": "chain 1 E7G", "screen value": "0.00129 average fractional NGS count over selection days 2 and 3 (reads of this peptide / all reads for the bait, averaged over …"}
{"variant": "chain 1 Q11F", "screen value": "0.000569 average fractional NGS count over selection days 2 and 3 (reads of this peptide / all reads for the bait, averaged over …"}
{"variant": "chain 1 A15P", "screen value": "0.00041 average fractional NGS count over selection days 2 and 3 (reads of this peptide / all reads for the bait, averaged over …"}
{"variant": "chain 1 L5P", "screen value": "0.000702 average fractional NGS count over selection days 2 and 3 (reads of this peptide / all reads for the bait, averaged over …"}
{"variant": "chain 1 L14F", "screen value": "0.00346 average fractional NGS count over selection days 2 and 3 (reads of this peptide / all reads for the bait, averaged over …"}
{"variant": "chain 1 A15M", "screen value": "0.000398 average fractional NGS count over selection days 2 and 3 (reads of this peptide / all reads for the bait, averaged over …"}
{"variant": "chain 1 E7T", "screen value": "0.00188 average fractional NGS count over selection days 2 and 3 (reads of this peptide / all reads for the bait, averaged over …"}
{"variant": "chain 1 A15L", "screen value": "0.00105 average fractional NGS count over selection days 2 and 3 (reads of this peptide / all reads for the bait, averaged over …"}
{"variant": "chain 1 L5T", "screen value": "0.000402 average fractional NGS count over selection days 2 and 3 (reads of this peptide / all reads for the bait, averaged over …"}
{"variant": "chain 1 A4V", "screen value": "0.000411 average fractional NGS count over selection days 2 and 3 (reads of this peptide / all reads for the bait, averaged over …"}
{"variant": "chain 1 A15H", "screen value": "0.000537 average fractional NGS count over selection days 2 and 3 (reads of this peptide / all reads for the bait, averaged over …"}
{"variant": "chain 1 F13Y", "screen value": "0.00124 average fractional NGS count over selection days 2 and 3 (reads of this peptide / all reads for the bait, averaged over …"}
{"variant": "chain 1 D2A", "screen value": "0.00157 average fractional NGS count over selection days 2 and 3 (reads of this peptide / all reads for the bait, averaged over …"}
{"variant": "chain 1 S6L", "screen value": "0.00108 average fractional NGS count over selection days 2 and 3 (reads of this peptide / all reads for the bait, averaged over …"}
{"variant": "chain 1 F13I", "screen value": "0.000603 average fractional NGS count over selection days 2 and 3 (reads of this peptide / all reads for the bait, averaged over …"}
{"variant": "chain 1 L5K", "screen value": "0.000511 average fractional NGS count over selection days 2 and 3 (reads of this peptide / all reads for the bait, averaged over …"}
{"variant": "chain 1 L14S", "screen value": "0.00136 average fractional NGS count over selection days 2 and 3 (reads of this peptide / all reads for the bait, averaged over …"}
{"variant": "chain 1 E12I", "screen value": "0.00181 average fractional NGS count over selection days 2 and 3 (reads of this peptide / all reads for the bait, averaged over …"}
{"variant": "chain 1 L14T", "screen value": "0.00188 average fractional NGS count over selection days 2 and 3 (reads of this peptide / all reads for the bait, averaged over …"}
{"variant": "chain 1 L3T", "screen value": "0.000563 average fractional NGS count over selection days 2 and 3 (reads of this peptide / all reads for the bait, averaged over …"}
{"variant": "chain 1 N8W", "screen value": "0.00165 average fractional NGS count over selection days 2 and 3 (reads of this peptide / all reads for the bait, averaged over …"}
{"variant": "chain 1 N8L", "screen value": "0.000366 average fractional NGS count over selection days 2 and 3 (reads of this peptide / all reads for the bait, averaged over …"}
{"variant": "chain 1 N8G", "screen value": "0.00135 average fractional NGS count over selection days 2 and 3 (reads of this peptide / all reads for the bait, averaged over …"}
{"variant": "chain 1 A1N", "screen value": "0.00108 average fractional NGS count over selection days 2 and 3 (reads of this peptide / all reads for the bait, averaged over …"}
{"variant": "chain 1 A1G", "screen value": "0.000525 average fractional NGS count over selection days 2 and 3 (reads of this peptide / all reads for the bait, averaged over …"}
{"variant": "chain 1 E7W", "screen value": "0.0042 average fractional NGS count over selection days 2 and 3 (reads of this peptide / all reads for the bait, averaged over …"}
{"variant": "chain 1 E7L", "screen value": "0.00102 average fractional NGS count over selection days 2 and 3 (reads of this peptide / all reads for the bait, averaged over …"}
{"variant": "chain 1 A4P", "screen value": "0.00132 average fractional NGS count over selection days 2 and 3 (reads of this peptide / all reads for the bait, averaged over …"}
{"variant": "chain 1 D2R", "screen value": "0.000895 average fractional NGS count over selection days 2 and 3 (reads of this peptide / all reads for the bait, averaged over …"}
{"variant": "chain 1 L3M", "screen value": "0.00299 average fractional NGS count over selection days 2 and 3 (reads of this peptide / all reads for the bait, averaged over …"}
{"variant": "chain 1 A4I", "screen value": "0.000694 average fractional NGS count over selection days 2 and 3 (reads of this peptide / all reads for the bait, averaged over …"}
{"variant": "chain 1 A10T", "screen value": "0.000469 average fractional NGS count over selection days 2 and 3 (reads of this peptide / all reads for the bait, averaged over …"}
{"variant": "chain 1 N8D", "screen value": "0.00107 average fractional NGS count over selection days 2 and 3 (reads of this peptide / all reads for the bait, averaged over …"}
{"variant": "chain 1 E12H", "screen value": "0.00205 average fractional NGS count over selection days 2 and 3 (reads of this peptide / all reads for the bait, averaged over …"}
{"variant": "chain 1 S6R", "screen value": "0.00161 average fractional NGS count over selection days 2 and 3 (reads of this peptide / all reads for the bait, averaged over …"}
{"variant": "chain 1 E7Y", "screen value": "0.00176 average fractional NGS count over selection days 2 and 3 (reads of this peptide / all reads for the bait, averaged over …"}
{"variant": "chain 1 E12P", "screen value": "0.000686 average fractional NGS count over selection days 2 and 3 (reads of this peptide / all reads for the bait, averaged over …"}
{"variant": "chain 1 S6G", "screen value": "0.000749 average fractional NGS count over selection days 2 and 3 (reads of this peptide / all reads for the bait, averaged over …"}
{"variant": "chain 1 Q11L", "screen value": "0.00081 average fractional NGS count over selection days 2 and 3 (reads of this peptide / all reads for the bait, averaged over …"}
{"variant": "chain 1 F13R", "screen value": "0.000386 average fractional NGS count over selection days 2 and 3 (reads of this peptide / all reads for the bait, averaged over …"}
{"variant": "chain 1 E7N", "screen value": "0.00129 average fractional NGS count over selection days 2 and 3 (reads of this peptide / all reads for the bait, averaged over …"}
{"variant": "chain 1 S6E", "screen value": "0.00164 average fractional NGS count over selection days 2 and 3 (reads of this peptide / all reads for the bait, averaged over …"}
{"variant": "chain 1 N8P", "screen value": "0.000567 average fractional NGS count over selection days 2 and 3 (reads of this peptide / all reads for the bait, averaged over …"}
{"variant": "chain 1 D2L", "screen value": "0.000809 average fractional NGS count over selection days 2 and 3 (reads of this peptide / all reads for the bait, averaged over …"}
{"variant": "chain 1 L14Q", "screen value": "0.000996 average fractional NGS count over selection days 2 and 3 (reads of this peptide / all reads for the bait, averaged over …"}
{"variant": "chain 1 L3N", "screen value": "0.000429 average fractional NGS count over selection days 2 and 3 (reads of this peptide / all reads for the bait, averaged over …"}
{"variant": "chain 1 S6N", "screen value": "0.000624 average fractional NGS count over selection days 2 and 3 (reads of this peptide / all reads for the bait, averaged over …"}
{"variant": "chain 1 E12V", "screen value": "0.00245 average fractional NGS count over selection days 2 and 3 (reads of this peptide / all reads for the bait, averaged over …"}
{"variant": "chain 1 F13H", "screen value": "0.00342 average fractional NGS count over selection days 2 and 3 (reads of this peptide / all reads for the bait, averaged over …"}
{"variant": "chain 1 L3Q", "screen value": "0.00182 average fractional NGS count over selection days 2 and 3 (reads of this peptide / all reads for the bait, averaged over …"}
{"variant": "chain 1 Q11H", "screen value": "0.00141 average fractional NGS count over selection days 2 and 3 (reads of this peptide / all reads for the bait, averaged over …"}
{"variant": "chain 1 E12W", "screen value": "0.0033 average fractional NGS count over selection days 2 and 3 (reads of this peptide / all reads for the bait, averaged over …"}
{"variant": "chain 1 E7F", "screen value": "0.000467 average fractional NGS count over selection days 2 and 3 (reads of this peptide / all reads for the bait, averaged over …"}
{"variant": "chain 1 L3A", "screen value": "0.00097 average fractional NGS count over selection days 2 and 3 (reads of this peptide / all reads for the bait, averaged over …"}
{"variant": "chain 1 E7P", "screen value": "0.00244 average fractional NGS count over selection days 2 and 3 (reads of this peptide / all reads for the bait, averaged over …"}
{"variant": "chain 1 S6F", "screen value": "0.00174 average fractional NGS count over selection days 2 and 3 (reads of this peptide / all reads for the bait, averaged over …"}
{"variant": "chain 1 D2P", "screen value": "0.00139 average fractional NGS count over selection days 2 and 3 (reads of this peptide / all reads for the bait, averaged over …"}
{"variant": "chain 1 L5H", "screen value": "0.00347 average fractional NGS count over selection days 2 and 3 (reads of this peptide / all reads for the bait, averaged over …"}
{"variant": "chain 1 A10Y", "screen value": "0.0104 average fractional NGS count over selection days 2 and 3 (reads of this peptide / all reads for the bait, averaged over …"}
{"variant": "chain 1 L14K", "screen value": "0.000342 average fractional NGS count over selection days 2 and 3 (reads of this peptide / all reads for the bait, averaged over …"}
{"variant": "chain 1 D2Y", "screen value": "0.000446 average fractional NGS count over selection days 2 and 3 (reads of this peptide / all reads for the bait, averaged over …"}
{"variant": "chain 1 S6H", "screen value": "0.00186 average fractional NGS count over selection days 2 and 3 (reads of this peptide / all reads for the bait, averaged over …"}
{"variant": "chain 1 A10W", "screen value": "0.00181 average fractional NGS count over selection days 2 and 3 (reads of this peptide / all reads for the bait, averaged over …"}
